Measurements published in patent publication US20130266567A1 (published 2013).
Changes are numbered by the printed parent chain. Several values for one entry are separate records, joined by “and”; a condition that tells them apart may be missing. Equal entries are not always repeated.

B1: DOM7r-36-2 (VHH)
VHH: EVQLLESGGGLVQPGGSLRLSCAASGFTFNHYTMGWVRQAPGKGREWVSLIHPSGTVTYYADSVKGRFTISRDNSKNTLYLQMNSLRAEDTAVYYCAKWSSRAFDYWGQGTLVTVSS
notes: VH immunoglobulin single variable domain (dAb, AlbudAb), not a camelid VHH; tested with a myc tag; also called 7r36-2 (Parent); not shown: myc tag
B2: DOM7r-36-102 (VHH)
VHH: B1 VHH with S100F, S101Y, A103N
notes: VH immunoglobulin single variable domain (dAb, AlbudAb), not a camelid VHH; tested with a myc tag; not shown: myc tag
B3: DOM7r-36-104 (VHH)
VHH: B1 VHH with S100A, S101T, A103G
notes: as for B2
B4: DOM7r-36-108 (VHH)
VHH: B1 VHH with I70T, W99L, S100E, S101G, A103S
notes: as for B2
B5: DOM7r-36-106 (VHH)
VHH: B1 VHH with W99F, S100R, S101G, A103G
notes: as for B2
B6: DOM7r-36-100 (VHH)
VHH: B1 VHH with S100E, S101R, A103T
notes: as for B2
B7: DOM7r-36-103 (VHH)
VHH: B1 VHH with I70T, S100D, S101R, R102K, A103L, Y106H
notes: as for B2
B8: DOM7r-36-105 (VHH)
VHH: B1 VHH with W99L, S100G, S101T, R102K, A103V
notes: as for B2
B9: DOM7r-36-107 (VHH)
VHH: B1 VHH with S100E, S101K, R102K, A103Y
notes: as for B2
B10: DOM7r-36-101 (VHH)
VHH: B1 VHH with S100F, S101L, R102K, A103S
notes: as for B2
B11: DOM7r-31-14 (VHH)
VHH: EVQLLESGGGLVQPGGSLRLSCTASGFTFRHYRMGWVRQAPGKGLEWVSWIRPDGTFTYYADSVKGRFTISRDNSKNTLYLQMNSLRAEDTAVYYCAKSYMADRFDYWGQGTLVTVSS
notes: VH immunoglobulin single variable domain (dAb, AlbudAb), not a camelid VHH; tested with a myc tag; also called 7r31-14 (Parent); not shown: myc tag
B12: DOM7r-31-101 (VHH)
VHH: B11 VHH with M101Q, D103G, R104T
notes: as for B2
B13: DOM7r-31-100 (VHH)
VHH: B11 VHH with S7P, M101L, A102S, D103G, R104T
notes: as for B2
B14: DOM7r-31-103 (VHH)
VHH: B11 VHH with T91A, A102S, D103G, R104T
notes: as for B2
B15: DOM7r-31-102 (VHH)
VHH: B11 VHH with M101H, R104K
notes: as for B2
B16: DOM7r-31-104 (VHH)
VHH: B11 VHH with D103G, R104T
notes: as for B2
B17: DOM7r-92-100 (VHH)
VHH: EVQLLESGGGLVQPGGSLRLSCAASGFTFDTSSMLWVRQAPGKGLEWVSVIHQSGTPTYYADSVKGRFTISRDNSKNTLYLQMNSLRAEDTAVYYCAKFPSSRMKFDYWGQGTLVTVSS
notes: VH immunoglobulin single variable domain (dAb, AlbudAb), not a camelid VHH; tested with a myc tag; MALLS: dimer 10%, monomer 90%; also called DOM7r-92-100 myc; not shown: myc tag
B18: DOM7r-92-101 (VHH)
VHH: B17 VHH with S102R, R103K, W109R
notes: as for B2
B19: DOM7r-92-4 (VHH)
VHH: B17 VHH with S102T, R103H, M104G
notes: VH immunoglobulin single variable domain (dAb, AlbudAb), not a camelid VHH; tested with a myc tag; also called 7r92-4 (Parent); not shown: myc tag
B20: DOM7r-92-102 (VHH)
VHH: B17 VHH with R103Q, M104F, K105R
notes: as for B2
B21: DOM7r-92-103 (VHH)
VHH: B17 VHH with S102E, R103G, K105N
notes: as for B2

Assays:
Human serum albumin [1] = target: T1, Human serum albumin (human, UniProt P02768 25-609); experiment: SPR, BIAcore 3000, serum albumin coupled to CM5 chip;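 also: Cross-reactivity of anti-serum albumin domain antibodies measured against human, cynomolgus monkey, rat and mouse serum albumin, binding kinetics giving Kd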
T1 construct: coupled to CM5 BIAcore chip; also called human SA; HSA
Method: (§1) Cross-reactivity of the AlbudAbs™ (ie, anti-serum albumin dAbs) was determined against human, Cynomolgus monkey (cyno), rat and mouse serum albumin using surface plasmon resonance (SPR). In this case, Biacore™ was used. Biacore™ 2000/3000 was used for the supernatant screens and determination of binding kinetic all of dAbs described herein. Biacore™ T100 was used for the determination of cross-reactivity of lead Vk and VH Albudabs to a wider range of species' SAs (12 in total). Protein samples were run on the T100 BIAcore as described for the BIAcore2000/3000 experiments. […] Where appropriate, a kinetic Langmuir 1:1 fitting model was used.

Rat serum albumin [2] = target: T2, Rat serum albumin (rat, UniProt P02770 25-608); experiment: as above
T2 construct: coupled to CM5 BIAcore chip; also called rat SA; RSA
Method: as §1

Cynomolgus serum albumin [3] = target: T3, Cynomolgus serum albumin (Cynomolgus monkey, UniProt A2V9Z4 25-608); experiment: as above
T3 construct: mature; purified native protein; coupled to CM5 BIAcore chip; also called cyno SA; CSA
Method: as §1

Mouse serum albumin [4] = target: T4, Mouse serum albumin (mouse, UniProt P07724 25-608); experiment: as above
T4 construct: mature; bought purified protein; coupled to CM5 BIAcore chip; also called mouse SA; MSA
Method: as §1

Human serum albumin [5] = target: T1, Human serum albumin; experiment: SPR, BIAcore 3000, serum albumin coupled to CM5 chip; first of two independent measurements on different protein batches
Method: as §1

Human serum albumin [6] = target: T1, Human serum albumin; experiment: SPR, BIAcore 3000, serum albumin coupled to CM5 chip; second of two independent measurements on different protein batches
Rat serum albumin [7] = target: T2, Rat serum albumin; experiment: SPR, BIAcore 3000, serum albumin coupled to CM5 chip; last of the independent measurements on different protein batches
Rabbit serum albumin [8] = target: T5, Rabbit serum albumin (rabbit, UniProt P49065 25-608); experiment: SPR, BIAcore T100
Method: as §1

Dog serum albumin = Dog serum albumin (dog, UniProt P49822 25-608); experiment: SPR, BIAcore T100, equilibrium KD
Method: as §1

Human serum albumin [9] = target: T1, Human serum albumin; experiment: SPR, BIAcore T100, equilibrium KD
Method: as §1

Rat serum albumin [10] = target: T2, Rat serum albumin; experiment: SPR, BIAcore T100, equilibrium KD
Method: as §1

Marmoset serum albumin = Marmoset serum albumin (marmoset); experiment: SPR, BIAcore T100, equilibrium KD
Method: as §1

Cynomolgus serum albumin [11] = target: T3, Cynomolgus serum albumin; experiment: SPR, BIAcore T100, equilibrium KD
Method: as §1

Mouse serum albumin [12] = target: T4, Mouse serum albumin; experiment: SPR, BIAcore T100, equilibrium KD
Method: as §1

Ferret serum albumin = Ferret serum albumin (ferret); experiment: SPR, BIAcore T100, equilibrium KD
Method: as §1

Mini Pig serum albumin = Mini Pig serum albumin (mini pig); experiment: SPR, BIAcore T100, equilibrium KD
Method: as §1

Sheep serum albumin = Sheep serum albumin (sheep, UniProt P14639 25-607); experiment: SPR, BIAcore T100, equilibrium KD
Method: as §1

Pig serum albumin = Pig serum albumin (pig, UniProt P08835 25-607); experiment: SPR, BIAcore T100, equilibrium KD
Method: as §1

Guinea Pig serum albumin = Guinea Pig serum albumin (guinea pig); experiment: SPR, BIAcore T100, equilibrium KD
Method: as §1

Rabbit serum albumin [13] = target: T5, Rabbit serum albumin; experiment: SPR, BIAcore T100, equilibrium KD
Method: as §1

Human serum albumin [14] = target: T1, Human serum albumin; experiment: SPR, BIAcore 3000, serum albumin coupled to CM5 chip; second of two independent measurements; marked with an unexplained caret
Method: as §1

Binder	Kd (Human serum albumin [1])	Kd (Rat serum albumin [2])	Kd (Cynomolgus serum albumin [3])	Kd (Mouse serum albumin [4])	other results
B1	190 nM and 360 nM and 305 nM and 385 nM	467 nM and 330 nM and 244 nM and 229 nM	800 nM and 815 nM and 628 nM and 1500 nM		
B2		100 nM	430 nM	250 nM	
B3		109 nM and 114 nM	149 nM and 360 nM	184 nM and 313 nM	Kd (Human serum albumin [5]): 82 nM; Kd (Human serum albumin [6]): 9 nM
B4	82 nM and 67 nM		265 nM	37.6 nM	
B5	209 nM and 124 nM	75 nM	840 nM and 1100 nM	113 nM and 73 nM	Kd (Rat serum albumin [7]): 42 nM
B6	74 nM and 100 nM and 35 nM	105 nM and 70 nM	87 nM and 230 nM	100 nM	
B7	62 nM and 65 nM	100 nM and 57 nM	94 nM	270 nM	
B8	284 nM and 313 nM	170 nM			
B9	83.4 nM and 44.5 nM	97.3 nM and 209 nM	127 nM	466 nM	binding result (Rabbit serum albumin [8]): no binding (tested: dilution series from 5 uM down to 39 nM); Kd (Dog serum albumin): 719 nM; Kd (Human serum albumin [9]): 18.3 nM; Kd (Rat serum albumin [10]): 99.2 nM; Kd (Marmoset serum albumin): 111 nM; Kd (Cynomolgus serum albumin [11]): 21.4 nM; Kd (Mouse serum albumin [12]): 143 nM; Kd (Ferret serum albumin): 740 nM; Kd (Mini Pig serum albumin): 895 nM; Kd (Sheep serum albumin): 637 nM; Kd (Pig serum albumin): 818 nM
B10	86 nM	183 nM	72 nM		
B11				6 nM and 12 nM and 14.2 nM	
B12	367 nM and 240 nM				
B13	260 nM and 287 nM	40 nM and 41 nM		5.4 nM and 12.7 nM	
B14	200 nM and 95 nM	40 nM			
B15	158 nM and 100 nM	67 nM and 30 nM			
B16		11.9 nM and 7.6 nM			Kd (Human serum albumin [5]): 89.1 nM; Kd (Dog serum albumin): 8.26 nM; Kd (Human serum albumin [9]): 25.9 nM; Kd (Rat serum albumin [10]): 6.09 nM; Kd (Marmoset serum albumin): 4900 nM; Kd (Mouse serum albumin [12]): 59.5 nM; Kd (Ferret serum albumin): 13.9 nM; Kd (Mini Pig serum albumin): 412 nM; Kd (Pig serum albumin): 415 nM; Kd (Guinea Pig serum albumin): 1630 nM; Kd (Rabbit serum albumin [13]): 1990 nM; Kd (Human serum albumin [14]): 81 nM
B17				33 nM and 90 nM	Kd (Dog serum albumin): 450 nM; Kd (Human serum albumin [9]): 3.56 nM; Kd (Rat serum albumin [10]): 54.3 nM; Kd (Marmoset serum albumin): 7.37 nM; Kd (Cynomolgus serum albumin [11]): 10.7 nM; Kd (Mouse serum albumin [12]): 61.5 nM; Kd (Ferret serum albumin): 317 nM; Kd (Mini Pig serum albumin): 308 nM; Kd (Sheep serum albumin): 569 nM; Kd (Pig serum albumin): 191 nM; Kd (Rabbit serum albumin [13]): 136 nM
B18	15 nM and 8 nM	23 nM and 16 nM	120 nM	56 nM	
B19	260 nM and 420 nM				
B20	28 nM	100 nM	32 nM	280 nM	
B21	160 nM and 123 nM		770 nM		
